In assay [1] the target is programmed cell death protein 1 (PD-1) on tumor infiltrating lymphocytes (human) (UniProt Q15116). Briefly: flow cytometry of melanoma tumor digest M1156; EH12.2H7 staining; percent of CD3+ cells stained.
For assay [2] the target is unchanged. In words: flow cytometry of ovarian tumor digest OV8074; EH12.2H7 staining; percent of CD3+ cells stained. (In general: Flow cytometry measures light scatter and fluorescence of single cells or particles in a stream.)
Assay [3] has the same target. Briefly: flow cytometry of head and neck tumor digest H3046; EH12.2H7 staining; percent of CD3+ cells stained.

This note sets out measurements from US20230039976A1.

UniProt Q15116, sequence (Q15116 25-288): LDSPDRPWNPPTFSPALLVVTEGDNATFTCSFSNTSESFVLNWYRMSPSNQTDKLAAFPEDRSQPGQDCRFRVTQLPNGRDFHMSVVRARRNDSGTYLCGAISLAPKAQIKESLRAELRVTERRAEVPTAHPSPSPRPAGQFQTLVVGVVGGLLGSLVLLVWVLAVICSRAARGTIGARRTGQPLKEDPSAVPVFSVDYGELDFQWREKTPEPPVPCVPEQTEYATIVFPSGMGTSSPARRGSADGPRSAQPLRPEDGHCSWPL

B1: anti-PD-1 antibody clone EH12.2H7 (BioLegend, Cat #329906) (antibody, from another filing, V domains shown)
VH: QVQLQQSGAELAKPGASVQMSCKASGYSFTSSWIHWVKQRPGQGLEWIGYIYPSTGFTEYNQKFKDKATLTADKSSSTAYMQLSSLTSEDSAVYYCARWRDSSGYHAMDYWGQGTSVTVSS
VL: DIVLTQSPASLTVSLGQRATISCRASQSVSTSGYSYMHWYQQKPGQPPKLLIKFGSNLESGIPARFSGSGSGTDFTLNIHPVEEEDTATYYCQHSWEIPYTFGGGTKLEIK
Consider B1, for which the Pre-sort % PD-1+ (of CD3+) in assay [1] was 93%; in assay [2], 70%; in assay [3], 13%.
